Patent US11306156
Blank lines part the entries; values can stand above or below the substance they belong to.

What was measured:
[1] = target: tissue factor (TF) antigen (UniProt P13726); experiment: SPR, against wild-type D3H44 Fab
[2] = target: tissue factor (TF) antigen (UniProt P13726); experiment: SPR (ProteOn XPR36), Fab captured on anti-penta-His, TF injected, 1:1 fit
[3] = target: tissue factor (TF) antigen (UniProt P13726); experiment: SPR, Fab captured on anti-penta-His, TF as analyte, 1:1 fit; batch C
[4] = target: tissue factor (TF) antigen (UniProt P13726); experiment: SPR, Fab captured on anti-penta-His, TF as analyte; against wild-type D3H44 Fab; batch C
[5] = target: D3H44 light chain Q124E_L135W_Q160E_T180E; experiment: LCCA, SPR tag readout, L1:L2 DNA 1:3 normalized to 1:1; competitor m23
[6] = target: D3H44 light chain F116A_Q124R_L135V_T178R; experiment: LCCA, SPR tag readout, L1:L2 DNA 1:3 normalized to 1:1; competitor m24
[7] = target: D3H44 light chain F116A_Q124R_L135V; experiment: as above
[8] = target: D3H44 light chain Q124E_L135W_Q160E_T180E; experiment: LCCA, SPR tag readout, L1:L2 DNA 1:3 normalized to 1:1; competitor m25
[9] = target: D3H44 light chain Q124E_L135W_Q160E_T180E; experiment: LCCA, SPR tag readout, L1:L2 DNA 1:9 normalized to 1:1; competitor m23
[10] = target: D3H44 light chain F116A_Q124R_L135V_T178R; experiment: LCCA, SPR tag readout, L1:L2 DNA 1:9 normalized to 1:1; competitor m24
[11] = target: D3H44 light chain F116A_Q124R_L135V; experiment: as above
[12] = target: D3H44 light chain Q124E_L135W_Q160E_T180E; experiment: LCCA, SPR tag readout, L1:L2 DNA 1:9 normalized to 1:1; competitor m25
[13] = target: tissue factor (TF) antigen (UniProt P13726); experiment: SPR (ProteOn), against wild-type D3H44 Fab; estimated value taken from the Fab differing only in L chain tag
[14] = target: tissue factor (TF) antigen (UniProt P13726); experiment: SPR (ProteOn), Fab captured by anti-penta-His, TF as analyte, 1:1 fit; estimated value taken from the Fab differing only in L chain tag
[15] = target: tissue factor (TF) antigen (UniProt P13726); experiment: SPR; log change of median KD against wild-type D3H44 Fab
[16] = target: tissue factor (TF) antigen (UniProt P13726); experiment: SPR, Fab captured by anti-penta-His, TF injected, 1:1 fit
[17] = target: tissue factor (TF) antigen (UniProt P13726); experiment: SPR (ProteOn XPR36): His-tagged Fab captured on anti-penta-His surface, TF as analyte, 1:1 fit; value estimated (*) from the Fab differing only in the L chain tag
[18] = target: D3H44 light chain Q38R_S131K; experiment: LCCA, SPR tag readout, L1:L2 DNA 1:3 normalized to 1:1; competitor m19
[19] = target: D3H44 light chain Q38E_Q124E_Q160E_T180E; experiment: LCCA, SPR tag readout, L1:L2 DNA 1:3 normalized to 1:1; competitor m21
[20] = target: D3H44 light chain Q38R_S131K; experiment: LCCA, SPR tag readout, L1:L2 DNA 1:9 normalized to 1:1; competitor m19
[21] = target: D3H44 light chain Q38E_Q124E_Q160E_T180E; experiment: LCCA, SPR tag readout, L1:L2 DNA 1:9 normalized to 1:1; competitor m21
[22] = target: D3H44 light chain T178R with N-terminal HA or FLAG tag; experiment: LCCA (SPR tag readout), L1:L2 DNA 1:3, normalized to 1:1; competing light chain m13

Substance: D3H44 Fab heterodimer, H1 S186R / L1 S131E (H1L1 Fab of LCCA Set # 9981 and 9985)
Kd [3]: 0.12 nM
change in median KD compared to wild type, -(log(KD design)-log(KD wt)) [4]: 0.1

Substance: D3H44 Fab heavy chain A139W_L143E_K145T_Q179E
H1L1:H1L2 normalized median ratio [5]: 2%
H2L2:H2L1 normalized median ratio [5]: 2%
H1L1:H1L2 normalized median ratio [6]: 98%
H1L1:H1L2 normalized median scalar value ln(r1/f1) [6]: 3.79
H2L2:H2L1 normalized median ratio [6]: 98%
H1L1:H1L2 normalized median ratio [7]: 97%
H1L1:H1L2 normalized median scalar value ln(r1/f1) [7]: 3.66
H2L2:H2L1 normalized median ratio [7]: 97%
H1L1:H1L2 normalized median ratio [8]: 3%
H2L2:H2L1 normalized median ratio [8]: 3%
H1L1:H1L2 normalized median ratio [9]: 3%
H2L2:H2L1 normalized median ratio [9]: 3%
H1L1:H1L2 normalized median ratio [10]: 97%
H1L1:H1L2 normalized median scalar value ln(r1/f1) [10]: 3.38
H2L2:H2L1 normalized median ratio [10]: 97%
H1L1:H1L2 normalized median ratio [11]: 95%
H1L1:H1L2 normalized median scalar value ln(r1/f1) [11]: 2.96
H2L2:H2L1 normalized median ratio [11]: 95%
H1L1:H1L2 normalized median ratio [12]: 5%
H2L2:H2L1 normalized median ratio [12]: 5%

Substance: D3H44 Fab heterodimer, H1L1 of LCCA set 9651 (H: L143E_K145T_Q179E; L: Q124R_Q160K_T178R)
Change in KD with respect to wild type (-(log(KD design) - log(KD wt))) [13]: 0.02
Kd [14]: 0.15 nM

Substance: H1L1 Fab heterodimer of LCCA Set # 9073 (D3H44 Fab; H1 F174V, L1 S131T_S176F_T178Y)
Change in median values of KD of h1l1 Fab heterodimer compared to wild type (-(log(KD design)-log(KD wt))) [1]: 0.04
Kd [2]: 0.14 nM

Substance: H1L1 Fab heterodimer of LCCA set 9058 (D3H44 Fab, H1 A139W_L143E_K145T_Q179E, L1 F116A_Q124R_L135V)
Change in median values of KD of h1l1 Fab heterodimer compared to wild type (-(log(KD design)-log(KD wt))) [15]: 0.12 log units
Kd [16]: 0.12 nM

Substance: D3H44 Fab heavy chain Q179K
H2L2:H2L1 normalized median ratio [5]: 88%
H2L2:H2L1 normalized median ratio [6]: 12%
H2L2:H2L1 normalized median ratio [7]: 23%
H2L2:H2L1 normalized median ratio [8]: 77%
H2L2:H2L1 normalized median ratio [9]: 87%
H2L2:H2L1 normalized median ratio [10]: 13%
H2L2:H2L1 normalized median ratio [11]: 20%
H2L2:H2L1 normalized median ratio [12]: 80%

Substance: D3H44 Fab heavy chain Q39R_H172R_S186R
H2L2:H2L1 normalized median ratio [18]: 6%
H2L2:H2L1 normalized median ratio [19]: 94%
H2L2:H2L1 normalized median ratio [20]: 7%
H2L2:H2L1 normalized median ratio [21]: 93%

Substance: H1L1 Fab heterodimer of LCCA sets 9574 and 9573 (D3H44 Fab, H1 L143A_Q179K, L1 Q124E_V133Y_T180E)
Change in median values of KD of h1l1 Fab heterodimer compared to wild type (-(log(KD design)-log(KD wt))) [15]: -0.23 log units
Kd [16]: 0.27 nM

Substance: D3H44 Fab heterodimer, H1 S186R / L1 Q124E_Q160E_T178E (H1L1 Fab of LCCA Set # 9867 and 9868)
Kd [3]: 0.14 nM
change in median KD compared to wild type, -(log(KD design)-log(KD wt)) [4]: 0.06

Second part, the substance after the results:

Change in median values of KD of h1l1 Fab heterodimer compared to wild type (-(log(KD design)-log(KD wt))) [1]: -0.01
Kd [2]: 0.16 nM
Substance: H1L1 Fab heterodimer of LCCA Set # 9074 (D3H44 Fab; H1 H172R_Q179K, L1 Q124E_Q160E_T180E)

Change in KD with respect to wild type (-(log(KD design) - log(KD wt))) [13]: 0.02
Kd [14]: 0.15 nM
Substance: D3H44 Fab heterodimer, H1L1 of LCCA set 9131 (H: L124E_K145M_Q179E; L: S131K_V133G_S176R)

Change in median values of KD of h1|1 Fab heterodimer compared to wild type (-(log(KD design)-log(KD wt))) [17]: -0.01 log units
Kd [17]: 0.16 nM
Substance: D3H44 H1L1 Fab heterodimer of LCCA set 9079 (H1 K145T_Q179E; L1 S131K)

H1L1:H1L2 normalized median ratio [18]: 93%
H1L1:H1L2 normalized median scalar value ln(r1/f1) [18]: 2.53
H1L1:H1L2 normalized median ratio [19]: 7%
H1L1:H1L2 normalized median ratio [20]: 89%
H1L1:H1L2 normalized median scalar value ln(r1/f1) [20]: 2.09
H1L1:H1L2 normalized median ratio [21]: 11%
Substance: D3H44 Fab heavy chain Q39E_K145T_H172R_Q179E

H1L1:H1L2 normalized median ratio [22]: 79%
H1L1:H1L2 normalized median scalar value ln(r1/f1) [22]: 1.31
Substance: D3H44 Fab heavy chain L143D_K145T_Q179E with C-terminal ABD2-His6 tag
